In patent US6528630:

Experiments:
[1] = target: human neuronal calcium channel α1B-1 subunit alone (human); assay: saturation binding of 125I-ω-CgTx GVIA to transfected HEK293 cells
[2] = target: T1, α1B-1α2b human neuronal calcium channel subunit combination (human); assay: as above
[3] = target: T1, α1B-1α2b human neuronal calcium channel …; assay: Bmax of 125I-ω-CgTx GVIA binding, against α1B-1 alone

For CKSPGSSCSPTSYNCCRSCNPYTKRCY (modifications not checked) [125I-ω-CgTx GVIA, P01522 46-72], the Bmax [1] was 757 sites/cell, the Kd [1] was 31.7 pM and the Bmax [2] was 2260 sites/cell. The Kd [2] was 84.6 pM and the fold change of binding capacity [3] was 3 fold.
